Results as given in the supplement of paper PMC5998384.

Tests used:
HeLa Kyoto [1] = assay: solubility in G1/S (NP-40 vs SDS abundance) (log2 ratio); higher = more soluble; details: cell cycle stage: G1/S
HeLa Kyoto [2] = assay: solubility change mitosis vs G1/S (difference of NP-40 vs SDS log2 ratios) (log2 ratio difference); higher = more soluble in mitosis
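Throughout, for solubility change mitosis vs G1/S (difference of NP-40 vs SDS log2 ratios): synchronized HeLa Kyoto cells (double thymidine block for G1/S, nocodazole release for mitosis), protein amounts in NP-40 versus SDS lysates quantified by mass spectrometry, three biological replicates.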
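Throughout, for solubility in G1/S (NP-40 vs SDS abundance): HeLa Kyoto cells arrested at G1/S by double thymidine block, proteins quantified by TMT10plex mass spectrometry in mild NP-40 versus SDS extracts, three biological replicates.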

Sequence | solubility in G1/S (log2) (HeLa Kyoto [1]) | solubility change mitosis (log2) (HeLa Kyoto [2])
MDTKHFLPLDFSTQVNSSLTSPTGRGSMAAPSLHPSLGPGIGSPGQLHSPISTLSSPINGMGPPFSVISSPMGPHSMSVPTTPTLGFSTGSPQLSSPMNPVSSSEDIKPPLGLNGVLKVPAHPSGNMASFTKHICAICGDRSSGKHYGVYSCEGCKGFFKRTVRKDLTYTCRDNKDCLIDKRQRNRCQYCRYQKCLAMGMKREAVQEERQRGKDRNENEVESTSSANEDMPVERILEAELAVEPKTETYVEANMGLNPSSPNDPVTNICQAADKQLFTLVEWAKRIPHFSELPLDDQVILLRAGWNELLIASFSHRSIAVKDGILLATGLHVHRNSAHSAGVGAIFDRVLTELVSKMRDMQMDKTELGCLRAIVLFNPDSKGLSNPAEVEALREKVYASLEAYCKHKYPEQPGRFAKLLLRLPALRSIGLKCLEHLFFFKLIGDTPIDTFLMEMLEAPHQMT [RXRA] | 0.173 | -0.151
MEAAETEAEAAALEVLAEVAGILEPVGLQEEAELPAKILVEFVVDSQKKDKLLCSQLQVADFLQNILAQEDTAKGLDPLASEDTSRQKAIAAKEQWKELKATYREHVEAIKIGLTKALTQMEEAQRKRTQLREAFEQLQAKKQMAMEKRRAVQNQWQLQQEKHLQHLAEVSAEVRERKTGTQQELDRVFQKLGNLKQQAEQERDKLQRYQTFLQLLYTLQGKLLFPEAEAEAENLPDDKPQQPTRPQEQSTGDTMGRDPGVSFKAVGLQPAGDVNLP [ZWINT] | -0.0767 | 0.896
MEAKTLGTVTPRKPVLSVSARKIKDNAADWHNLILKWETLNDAGFTTANNIANLKISLLNKDKIELDSSSPASKENEEKVCLEYNEELEKLCEELQATLDGLTKIQVKMEKLSSTTKGICELENYHYGEESKRPPLFHTWPTTHFYEVSHKLLEMYRKELLLKRTVAKELAHTGDPDLTLSYLSMWLHQPYVESDSRLHLESMLLETGHRAL [CINP] | 0.148 | 0.525
MEDKRNIQIIEWEHLDKKKFYVFGVAMTMMIRVSVYPFTLIRTRLQVQKGKSLYHGTFDAFIKILRADGITGLYRGFLVNTFTLISGQCYVTTYELTRKFVADYSQSNTVKSLVAGGSASLVAQSITVPIDVVSQHLMMQRKGEKMGRFQVRGNPEGQGVVAFGQTKDIIRQILQADGLRGFYRGYVASLLTYIPNSAVWWPFYHFYAEQLSYLCPKECPHIVFQAVSGPLAAATASILTNPMDVIRTRVQVEGKNSIILTFRQLMAEEGPWGLMKGLSARIISATPSTIVIVVGYESLKKLSLRPELVDSRHW [SLC25A44] | -0.146 | -0.117
MEEGNNNEEVIHLNNFHCHRGQEWINLRDGPITISDSSDEERIPMLVTPAPQQHEEEDLDDDVILTEDDSEDDYGEFLDLGPPGISEFTKPSGQTEREPKPGPSHNQAANDIVNPRSEQKVIILEEGSLLYTESDPLETQNQSSEDSETELLSNLGESAALADDQAIEEDCWLDHPYFQSLNQQPREITNQVVPQERQPEAELGRLLFQHEFPGPAFPRPEPQQGGISGPSSPQPAHPLGEFEDQQLASDDEEPGPAFPMQESQEPNLENIWGQEAAEVDQELVELLVKETEARFPDVANGFIEEIIHFKNYYDLNVLCNFLLENPDYPKREDRIIINPSSSLLASQDETKLPKIDFFDYSKLTPLDQRCFIQAADLLMADFKVLSSQDIKWALHELKGHYAITRKALSDAIKKWQELSPETSGKRKKRKQMNQYSYIDFKFEQGDIKIEKRMFFLENKRRHCRSYDRRALLPAVQQEQEFYEQKIKEMAEHEDFLLALQMNEEQYQKDGQLIECRCCYGEFPFEELTQCADAHLFCKECLIRYAQEAVFGSGKLELSCMEGSCTCSFPTSELEKVLPQTILYKYYERKAEEEVAAAYADELVRCPSCSFPALLDSDVKRFSCPNPHCRKETCRKCQGLWKEHNGLTCEELAEKDDIKYRTSIEEKMTAARIRKCHKCGTGLIKSEGCNRMSCRCGAQMCYLCRVSINGYDHFCQHPRSPGAPCQECSRCSLWTDPTEDDEKLIEEIQKEAEEEQKRKNGENTFKRIGPPLEKPVEKVQRVEALPRPVPQNLPQPQMPPYAFAHPPFPLPPVRPVFNNFPLNMGPIPAPYVPPLPNVRVNYDFGPIHMPLEHNLPMHFGPQPRHRF [RNF216] | -0.195 | -0.122
MEGAAAREARGTETPRASAPPPAPSEPPAAPRARPRLVFRTQLAHGSPTGKIEGFTNVRELYAKIAEAFGIAPTEILFCTLNSHKVDMQKLLGGQIGLEDFIFAHVRGETKEVEVTKTEDALGLTITDNGAGYAFIKRIKEGSIINRIEAVCVGDSIEAINDHSIVGCRHYEVAKMLRELPKSQPFTLRLVQPKRAFDMIGQRSRSSKCPVEAKVTSGRETLRLRSGGAATVEEAPSEFEEEASRKVDDLLESYMGIRDPELASTMVETSKKTASAQEFARCLDSVLGEFAFPDEFVVEVWAAIGEAREACG [GIPC3] | 0.0786 | -0.0196
MEGDGVPWGSEPVSGPGPGGGGMIRELCRGFGRYRRYLGRLRQNLRETQKFFRDIKCSHNHTCLSSLTGGGGAERGPAGDVAETGLQAGQLSCISFPPKEEKYLQQIVDCLPCILILGQDCNVKCQLLNLLLGVQVLPTTKLGSEESCKLRRLRFTYGTQTRVSLALPGQYELVHTLVAHQGNWETIPEEDLEVQENNEDAAHVLAELEVTMHHALLQEVDVVVAPCQGLRPTVDVLGDLVNDFLPVITYALHKDELSERDEQELQEIRKYFSFPVFFFKVPKLGSEIIDSSTRRMESERSPLYRQLIDLGYLSSSHWNCGAPGQDTKAQSMLVEQSEKLRHLSTFSHQVLQTRLVDAAKALNLVHCHCLDIFINQAFDMQRDLQITPKRLEYTRKKENELYESLMNIANRKQEEMKDMIVETLNTMKEELLDDATNMEFKDVIVPENGEPVGTREIKCCIRQIQELIISRLNQAVANKLISSVDYLRESFVGTLERCLQSLEKSQDVSVHITSNYLKQILNAAYHVEVTFHSGSSVTRMLWEQIKQIIQRITWVSPPAITLEWKRKVAQEAIESLSASKLAKSICSQFRTRLNSSHEAFAASLRQLEAGHSGRLEKTEDLWLRVRKDHAPRLARLSLESCSLQDVLLHRKPKLGQELGRGQYGVVYLCDNWGGHFPCALKSVVPPDEKHWNDLALEFHYMRSLPKHERLVDLHGSVIDYNYGGGSSIAVLLIMERLHRDLYTGLKAGLTLETRLQIALDVVEGIRFLHSQGLVHRDIKLKNVLLDKQNRAKITDLGFCKPEAMMSGSIVGTPIHMAPELFTGKYDNSVDVYAFGILFWYICSGSVKLPEAFERCASKDHLWNNVRRGARPERLPVFDEECWQLMEACWDGDPLKRPLLGIVQPMLQGIMNRLCKSNSEQPNRGLDDST [DSTYK] | 0.0887 | -0.242
MEGVELKEEWQDEDFPIPLPEDDSIEADILAITGPEDQPGSLEVNGNKVRKKLMAPDISLTLDPSDGSVLSDDLDESGEIDLDGLDTPSENSNEFEWEDDLPKPKTTEVIRKGSITEYTAAEEKEDGRRWRMFRIGEQDHRVDMKAIEPYKKVISHGGYYGDGLNAIVVFAVCFMPESSQPNYRYLMDNLFKYVIGTLELLVAENYMIVYLNGATTRRKMPSLGWLRKCYQQIDRRLRKNLKSLIIVHPSWFIRTLLAVTRPFISSKFSQKIRYVFNLAELAELVPMEYVGIPECIKQVDQELNGKQDEPKNEQ [BNIP2] | 0.0256 | -0.366
MEKYHVLEMIGEGSFGRVYKGRRKYSAQVVALKFIPKLGRSEKELRNLQREIEIMRGLRHPNIVHMLDSFETDKEVVVVTDYAEGELFQILEDDGKLPEDQVQAIAAQLVSALYYLHSHRILHRDMKPQNILLAKGGGIKLCDFGFARAMSTNTMVLTSIKGTPLYMSPELVEERPYDHTADLWSVGCILYELAVGTPPFYATSIFQLVSLILKDPVRWPSTISPCFKNFLQGLLTKDPRQRLSWPDLLYHPFIAGHVTIITEPAGPDLGTPFTSRLPPELQVLKDEQAHRLAPKGNQSRILTQAYKRMAEEAMQKKHQNTGPALEQEDKTSKVAPGTAPLPRLGATPQESSLLAGILASELKSSWAKSGTGEVPSAPRENRTTPDCERAFPEERPEVLGQRSTDVVDLENEEPDSDNEWQHLLETTEPVPIQLKAPLTLLCNPDFCQRIQSQLHEAGGQILKGILEGASHILPAFRVLSSLLSSCSDSVALYSFCREAGLPGLLLSLLRHSQESNSLQQQSWYGTFLQDLMAVIQAYFACTFNLERSQTSDSLQVFQEAANLFLDLLGKLLAQPDDSEQTLRRDSLMCFTVLCEAMDGNSRAISKAFYSSLLTTQQVVLDGLLHGLTVPQLPVHTPQGAPQVSQPLREQSEDIPGAISSALAAICTAPVGLPDCWDAKEQVCWHLANQLTEDSSQLRPSLISGLQHPILCLHLLKVLYSCCLVSEGLCRLLGQEPLALESLFMLIQGKVKVVDWEESTEVTLYFLSLLVFRLQNLPCGMEKLGSDVATLFTHSHVVSLVSAAACLLGQLGQQGVTFDLQPMEWMAAATHALSAPAEVRLTPPGSCGFYDGLLILLLQLLTEQGKASLIRDMSSSEMWTVLWHRFSMVLRLPEEASAQEGELSLSSPPSPEPDWTLISPQGMAALLSLAMATFTQEPQLCLSCLSQHGSILMSILKHLLCPSFLNQLRQAPHGSEFLPVVVLSVCQLLCFPFALDMDADLLIGVLADLRDSEVAAHLLQVCCYHLPLMQVELPISLLTRLALMDPTSLNQFVNTVSASPRTIVSFLSVALLSDQPLLTSDLLSLLAHTARVLSPSHLSFIQELLAGSDESYRPLRSLLGHPENSVRAHTYRLLGHLLQHSMALRGALQSQSGLLSLLLLGLGDKDPVVRCSASFAVGNAAYQAGPLGPALAAAVPSMTQLLGDPQAGIRRNVASALGNLGPEGLGEELLQCEVPQRLLEMACGDPQPNVKEAALIALRSLQQEPGIHQVLVSLGASEKLSLLSLGNQSLPHSSPRPASAKHCRKLIHLLRPAHSM [STK36] | -0.178 | 0.092
